± gives the standard deviation of the averaged measurements.
tested on: Saccharomyces cerevisiae; assay: protein stability index of tFT-peptide fusion (C-terminal peptide) (PSI (0-1 scale)); higher = more stable (slower turnover); settings: genetic background: wild type; temperature: 30 C
Experimental: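 Multiplexed protein stability (MPS) profiling in S. cerevisiae. Random 12-aa peptides (tFT-X12 library) are fused to the C-terminus of a sfGFP-mCherry tandem fluorescent timer, after mCherry and a GGGS linker. Cells are FACS-sorted into 8 mCherry/sfGFP bins and deep-sequenced. The protein stability index (PSI) is the read-weighted bin average, scaled from 0 (unstable) to 1 (stable). Only peptides with >10 reads are reported; cells were grown at 30 °C in SC-His with glucose.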
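Further: PSI is a weighted mean of sequencing reads over stability bins, variants kept only with over 10 reads, mCherry proximal and sfGFP distal, peptide attached via GGGS linker.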

Sequence | protein stability index
LVCSSVALLSVL | 0.593 ± 0.018
PVLRLPHDETAN | 0.705 ± 0.035
EWCVRKATRDIE | 0.659 ± 0.014
LTKHQITKKAER | 0.73 ± 0.078
QAVTSVGTTNIV | 0.689 ± 0.023
VEVRRMCSGQLG | 0.7136 ± 0.00096
TFLMEMVPRLFI | 0.664 ± 0.036
TGSRHDLDGSMK | 0.679 ± 0.017
TTRHPRLHYIDP | 0.674 ± 0.019
SLVSTSRALFAQ | 0.659 ± 0.019
SKGQLRLNMCIL | 0.662 ± 0.046
QKQINQKKRTMK | 0.649 ± 0.055
KKQKKQKKKSHK | 0.715 ± 0.047
TFREMPESIGNG | 0.654 ± 0.047
DWFGGSVRVDEN | 0.693 ± 0.055
PTTPPTILLLPL | 0.658 ± 0.031
WSRPAGVRSSLA | 0.7039 ± 0.00079
WGTTLMYKAKKA | 0.616 ± 0.024
LVDARVRLTFVI | 0.536 ± 0.014
GPVVAGRLWLWV | 0.641 ± 0.046
VCFCLGNVTMEF | 0.732 ± 0.017
DAVVPSSTVPLL | 0.7001 ± 0.0022
DWWLPLFDWAKL | 0.872 ± 0.025
WLFSSRDSGACR | 0.8029 ± 0.0011
SLLPHSPLLPPP | 0.694 ± 0.0031

Sequence | protein stability index
VGAGAGGVGWVL | 0.749 ± 0.056
PPPSSPPSPVIR | 0.694 ± 0.056
TRPTPTRADCFG | 0.685 ± 0.026
LGCSMSPYFVRF | 0.802 ± 0.074
PTPTTSPASRQN | 0.682 ± 0.023
KKRHYSCYKNTN | 0.725 ± 0.015
RKLHDKDDPKTI | 0.681 ± 0.03
ACVSWLPVPRQS | 0.6964 ± 0.0062
GFINYDHKVIRI | 0.77 ± 0.023
PHCPPPPSLSPP | 0.791 ± 0.094
FGVLGCGFLLSL | 0.688 ± 0.018
VLSRVSMSLGSP | 0.767 ± 0.16
KKKRIERKEKGE | 0.676 ± 0.059
PVFLSCCLCLLS | 0.78 ± 0.099
SCFLAFSFLCLF | 0.5 ± 0.0096
LFSHGFLYILGG | 0.696 ± 0.017
RGGCLPTCPQET | 0.652 ± 0.026
PDPPPLLPRLSL | 0.701 ± 0.016
GKRRCRREVERK | 0.695 ± 0.018
FTCVVRRGDIQL | 0.675 ± 0.056
VLLLLYGMFRGR | 0.59 ± 0.0094
GKGEERGVATRT | 0.657 ± 0.0076
RGGWYLQKAITP | 0.716 ± 0.047
CGGKTEKRKKYT | 0.6062 ± 0.0034
PSLPPPSPSPPP | 0.666 ± 0.05

Sequence | protein stability index
EGSSVITFAGGG | 0.664 ± 0.046
YYRARRFRQSRR | 0.709 ± 0.077
VTTKMQVAGSRK | 0.6377 ± 0.00065
SLLILMYHIAPF | 0.53 ± 0.03
IRRSVVRCLFTE | 0.707 ± 0.056
ESNFTLIRKIRT | 0.64 ± 0.0065
LFPSSHFSLSLH | 0.767 ± 0.033
PPLLPLPPRPLL | 0.728 ± 0.044
DYLVRGPPRASG | 0.629 ± 0.021
RKKRRKVKRSEK | 0.547 ± 0.034
KELIGITYKNSS | 0.6766 ± 0.0058
CSSEGFSLASMI | 0.707 ± 0.025
LTHSTLCYASDL | 0.677 ± 0.018
LPTSSTRVEFSV | 0.638 ± 0.045
VPFRLFSSYLSG | 0.641 ± 0.037
LLSPAPRSPRRP | 0.725 ± 0.019
CRVWRAPSGWVG | 0.646 ± 0.03
WVLFWWRGRSGR | 0.665 ± 0.042
IRNACRINESQC | 0.698 ± 0.017
INRGGLVRGFGS | 0.725 ± 0.17
EAAVTESVTGKR | 0.679 ± 0.0088
RESGASLWATMR | 0.734 ± 0.015
RLVAHPSRPLPV | 0.647 ± 0.033
LPLALLSPPFGS | 0.707 ± 0.022
IHLQGSSYRSLT | 0.68 ± 0.14

Sequence | protein stability index
ISLWALSQLPVP | 0.79 ± 0.19
PLPPPPYPPTLL | 0.592 ± 0.016
LWVSGARTTGYF | 0.756 ± 0.048
APACVAGGGQRL | 0.681 ± 0.081
SRNFSIQILRER | 0.659 ± 0.019
NNTVRTPKLSIE | 0.71584 ± 0.00044
TAKGSSIMCVKI | 0.729 ± 0.05
SAPLVHASSSPQ | 0.722 ± 0.042
LSCQWNSDSLGV | 0.644 ± 0.1
FGYGLPFPERVE | 0.781 ± 0.046
WIGHALPSSNSH | 0.675 ± 0.056
WGLCWFGCLWGR | 0.692 ± 0.033
VALSLTSIFFMS | 0.556 ± 0.041
PKNNHTKKKTGQ | 0.677 ± 0.0093
GVLGWTRFRSCS | 0.715 ± 0.077
SETGSGGLFSLP | 0.693 ± 0.018
YSVLVSLLPPSL | 0.681 ± 0.031
VGKTVKQLSLIS | 0.597 ± 0.039
PQTAGTHRARVN | 0.698 ± 0.026
FYCSWGGNDVDN | 0.692 ± 0.075
KDGGRLRVDQWI | 0.706 ± 0.076
NHTKAGTEKNKN | 0.618 ± 0.067
SGNYRGGLTVFS | 0.711 ± 0.023
